Test [1] concerns the target AmtB with the C312T mutation (trimeric ammonia channel from Escherichia coli) (Escherichia coli) (UniProt P69681). Nature of the test: native MS.
Test [2] addresses GlnK with Y51F mutation (UniProt P0AC55). Nature of the test: native MS.

Regarding “AmtB with the C312T mutation (trimeric ammonia channel from Escherichia coli) (from UniProt P69681 23-428) (natural protein)”, the stoichiometry N (usually a count of units in the complex or per binding partner) in test [1] came to 3.
Take “GlnK with Y51F mutation (from UniProt P0AC55 1-112) (natural protein)”: the stoichiometry N in test [2] was 3.

For the origin of these results see paper PMC8056390.
